Experimental data: the supplement of paper PMC7125110
± gives the standard error. Fewer inactive variants are shown than the library holds.

B1: glmS ribozyme (parent)
chain: AUAAAAGCGCCAGAACUACAGAAAUGUAGUUGACGAGGAGGAGGUUUAUCGAAUUUUCGGCGGAUGCCUCCAAA

What was measured:
Settings in all cases: with glucosamine-6-phosphate
glucosamine-6-phosphate [1] = variants of: B1; test: self-cleavage kobs at 40 uM GlcN6P; higher = faster cleavage; RNA array
Method in brief: (§1)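 A hybridised Cy3 probe tracked barcoded ribozyme variants, transcribed in situ by E. coli RNA polymerase on sequenced MiSeq chips, at 37 °C. The variants received 40 μM to 10 mM glucosamine-6-phosphate in HEPES/KCl/Mg(OAc)2 buffer. kobs came from decay fits and kcat and KM from weighted Michaelis–Menten fits.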

glucosamine-6-phosphate [2] = variants of: B1; test: self-cleavage kobs at 160 uM GlcN6P; higher = faster cleavage; RNA array
Method in brief: as §1

glucosamine-6-phosphate [3] = variants of: B1; test: self-cleavage kobs at 640 uM GlcN6P; higher = faster cleavage; RNA array
Method in brief: as §1

glucosamine-6-phosphate [4] = variants of: B1; test: self-cleavage kobs at 2500 uM GlcN6P; higher = faster cleavage; RNA array
Method in brief: as §1

glucosamine-6-phosphate [5] = variants of: B1; test: self-cleavage kobs at 10000 uM GlcN6P; higher = faster cleavage; RNA array
Method in brief: as §1

Row | Variant | self-cleavage kobs at 40 uM GlcN6P (glucosamine-6-phosphate [1]) [s⁻¹] | self-cleavage kobs at 160 uM GlcN6P (glucosamine-6-phosphate [2]) [s⁻¹] | self-cleavage kobs at 640 uM GlcN6P (glucosamine-6-phosphate [3]) [s⁻¹] | self-cleavage kobs at 2500 uM GlcN6P (glucosamine-6-phosphate [4]) [s⁻¹] | self-cleavage kobs at 10000 uM GlcN6P (glucosamine-6-phosphate [5]) [s⁻¹]
1 | C16U C67U | 0.000314 ± 3.3e-05 | 0.000412 ± 0.00014 | 0.00186 ± 0.00024 | 0.00294 ± 0.00071 | 0.0126 ± 0.0021
2 | A15U C61G | < 1e-05 | – | – | – | < 1e-05
3 | C16U G37A | 7.36e-05 ± 1.1e-05 | 0.000108 ± 1.3e-05 | 0.000713 ± 7.9e-05 | 0.00123 ± 0.00015 | 0.00262 ± 0.00044
4 | G29A U49A | < 1e-05 | < 1e-05 | < 1e-05 | – | –
5 | G29C U45A C68G | < 1e-05 | – | – | – | < 1e-05
6 | A15G U47G G60A C61U C68A | 6.07e-05 ± 2.7e-05 | – | 0.000299 ± 9.2e-05 | 0.00013 ± 3.6e-05 | –
7 | C16G C34A G38C U65C | < 1e-05 | – | – | – | –
8 | U30A U31C C50G U56G C61G | 3.8e-05 ± 1.5e-05 | – | – | – | –
9 | G29U U31C C50G | 6.96e-05 ± 3.2e-05 | – | – | – | 5.39e-05 ± 2.3e-05
10 | C16G G59U | < 1e-05 | – | < 1e-05 | < 1e-05 | –
11 | G29C U49A | < 1e-05 | – | – | – | < 1e-05
12 | G29U G44A | < 1e-05 | < 1e-05 | – | – | 3.45e-05 ± 9.6e-06
13 | U30A G38A U65C C70G | < 1e-05 | – | < 1e-05 | – | < 1e-05
14 | C16U A42G C61G | < 1e-05 | – | – | – | –
15 | C16A G35U G43C C68U | < 1e-05 | < 1e-05 | < 1e-05 | – | –
16 | A15U A36C U46G | < 1e-05 | – | – | – | < 1e-05
17 | C19A U31A | 0.000156 ± 5.1e-05 | – | – | 0.00209 ± 0.001 | 0.00693 ± 0.0019
18 | U30A C50G U54A U69G | 5.79e-05 ± 1.6e-05 | – | – | – | –
19 | C16A U55A | 7.92e-05 ± 1.5e-05 | – | – | 0.000515 ± 0.00022 | 0.00285 ± 0.00043
20 | A15U G29A G43A | < 1e-05 | – | – | – | < 1e-05
21 | C16A U31A G32U G40C G41A C67U C68U | < 1e-05 | – | – | – | < 1e-05
22 | U30A A33U U56C | < 1e-05 | – | – | – | –
23 | U30A G60U | < 1e-05 | < 1e-05 | < 1e-05 | – | < 1e-05
24 | G29C U56G C70U | 6.27e-05 ± 2.2e-05 | – | – | – | 0.00013 ± 3.2e-05

Row | Variant | self-cleavage kobs at 40 uM GlcN6P (glucosamine-6-phosphate [1]) [s⁻¹] | self-cleavage kobs at 160 uM GlcN6P (glucosamine-6-phosphate [2]) [s⁻¹] | self-cleavage kobs at 640 uM GlcN6P (glucosamine-6-phosphate [3]) [s⁻¹] | self-cleavage kobs at 2500 uM GlcN6P (glucosamine-6-phosphate [4]) [s⁻¹] | self-cleavage kobs at 10000 uM GlcN6P (glucosamine-6-phosphate [5]) [s⁻¹]
25 | C16A G29C G37U | < 1e-05 | – | – | < 1e-05 | –
26 | C16A G41C | < 1e-05 | < 1e-05 | < 1e-05 | – | –
27 | U30C C50A A53G U69C C70G | 5.5e-05 ± 1.9e-05 | – | – | – | –
28 | G29C A48G | < 1e-05 | < 1e-05 | < 1e-05 | < 1e-05 | –
29 | U30A C61U | < 1e-05 | – | < 1e-05 | – | < 1e-05
30 | A15U A33U C61G | < 1e-05 | – | – | – | –
31 | U30C A33C | < 1e-05 | < 1e-05 | < 1e-05 | – | –
32 | G29U U56A | 4.68e-05 ± 1.4e-05 | 9.32e-05 ± 2e-05 | 0.000211 ± 7e-05 | – | 0.00285 ± 0.00045
33 | A15U C68A C71A | < 1e-05 | – | – | – | –
34 | G29A A39G | 0.000267 ± 3.9e-05 | – | 0.00148 ± 0.00051 | 0.00297 ± 0.00077 | 0.0102 ± 0.0018
35 | C16G U57C | < 1e-05 | < 1e-05 | – | – | 3.37e-05 ± 1.2e-05
36 | G29U U56G G62U | < 1e-05 | – | – | – | –
37 | C16U U54C | 0.000813 ± 0.00013 | 0.00146 ± 0.00024 | 0.00641 ± 0.001 | 0.00606 ± 0.0012 | 0.0254 ± 0.0047
38 | C16U U54A | 0.000888 ± 0.00012 | 0.00185 ± 0.0004 | 0.00323 ± 0.00079 | 0.00607 ± 0.0014 | 0.0405 ± 0.0081
39 | C16U G41U A53U | 3.27e-05 ± 1.6e-05 | – | – | – | 0.00071 ± 0.00015
40 | G29C G38U A48C | < 1e-05 | – | < 1e-05 | – | < 1e-05
41 | G29A G38A U46G C61U | < 1e-05 | – | – | – | < 1e-05
42 | U30A G63U | < 1e-05 | < 1e-05 | – | – | < 1e-05
43 | G29C C34U | < 1e-05 | < 1e-05 | < 1e-05 | < 1e-05 | < 1e-05
44 | G29U G32A U65G G66A | < 1e-05 | – | – | – | 4.66e-05 ± 1.9e-05
45 | A15U G37C G38U | < 1e-05 | – | – | – | –
46 | A28C C34A G62C | < 1e-05 | – | – | – | < 1e-05
47 | C16A G32C G41C C68U C70A C71U | < 1e-05 | – | – | – | –
48 | C16A C58U | < 1e-05 | < 1e-05 | – | – | 3.14e-05 ± 1.3e-05
